Two molecules from article PMC3814156 (Molecular Biology of the Cell, 2013) can be followed below.

In the assay the target is ezrin FERM domain (residues 1–298), untagged (UniProt P15311 1-298). The experiment in a line: pull-down.
Chain of ezrin FERM domain (residues 1–298), untagged (P15311 1-298): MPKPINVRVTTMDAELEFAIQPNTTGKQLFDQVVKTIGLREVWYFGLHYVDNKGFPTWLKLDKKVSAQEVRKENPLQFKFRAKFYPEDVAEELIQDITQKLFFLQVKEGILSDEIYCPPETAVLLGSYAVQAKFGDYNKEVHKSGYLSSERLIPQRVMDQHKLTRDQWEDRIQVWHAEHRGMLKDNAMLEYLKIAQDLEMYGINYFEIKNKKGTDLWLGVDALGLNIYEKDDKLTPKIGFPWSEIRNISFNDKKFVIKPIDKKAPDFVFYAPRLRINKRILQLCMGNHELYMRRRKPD

B1: SUMO-tagged E3KARP (natural protein, human, UniProt Q15599 1-337, looked up)
chain: MAAPEPLRPRLCRLVRGEQGYGFHLHGEKGRRGQFIRRVEPGSPAEAAALRAGDRLVEVNGVNVEGETHHQVVQRIKAVEGQTRLLVVDQETDEELRRRQLTCTEEMAQRGLPPAHDPWEPKPDWAHTGSHSSEAGKKDVSGPLRELRPRLCHLRKGPQGYGFNLHSDKSRPGQYIRSVDPGSPAARSGLRAQDRLIEVNGQNVEGLRHAEVVASIKAREDEARLLVVDPETDEHFKRLRVTPTEEHVEGPLPSPVTNGTSPAQLNGGSACSSRSDLPGSDKDTEDGSAWKQDPFQESGLHLSPTAAEAKEKARAMRVNKRAPQMDWNRKREIFSNF
Consider B1, for which the “half-life of dissociation from ezrin FERM beads” value was roughly 16 min.

B2: SUMO-tagged EBP50 (natural protein, human, UniProt O14745 1-358, looked up)
chain: MSADAAAGAPLPRLCCLEKGPNGYGFHLHGEKGKLGQYIRLVEPGSPAEKAGLLAGDRLVEVNGENVEKETHQQVVSRIRAALNAVRLLVVDPETDEQLQKLGVQVREELLRAQEAPGQAEPPAAAEVQGAGNENEPREADKSHPEQRELRPRLCTMKKGPSGYGFNLHSDKSKPGQFIRSVDPDSPAEASGLRAQDRIVEVNGVCMEGKQHGDVVSAIRAGGDETKLLVVDRETDEFFKKCRVIPSQEHLNGPLPVPFTNGEIQKENSREALAEAALESPRPALVRSASSDTSEELNSQDSPPKQDSTAPSSTSSSDPILDFNISLAMAKERAHQKRSSKRAPQMDWSKKNELFSNL
Regarding B2, the “half-life of dissociation from ezrin FERM beads” value was roughly 10 min.
